T1: MAGEA1 (peptide MAGEA1-003) peptide on HLA-A*02:01 (human)
T1 peptide: KVLEYVIKV

T2: GALNTL4 (peptide code GALNTL4-001) peptide on HLA-A*02:01 (human)
T2 peptide: KLTEYVDKV

T3: TMEM175 (peptide code TMEM175-001) peptide on HLA-A*02:01 (human)
T3 peptide: ILLPYVSKV

T4: PSME2 (peptide code PSME2-001) peptide on HLA-A*02:01 (human)
T4 peptide: KVLERVNAV

T5: RASAL2 (peptide code RASAL2-002) peptide on HLA-A*02:01 (human)
T5 peptide: SVLEPVISV

T6: NSD1 (peptide code NSD1-001) peptide on HLA-A*02:01 (human)
T6 peptide: KVQEQVHKV

T7: EPAS (peptide code EPAS-001) peptide on HLA-A*02:01 (human)
T7 peptide: KALEGFIAV

T8: PTRF (peptide code PTRF-001) peptide on HLA-A*02:01 (human)
T8 peptide: KLLEKVRKV

T9: KIAA103 (peptide code KIAA103-002) peptide on HLA-A*02:01 (human)
T9 peptide: KVLNKVITV

T10: TMTC4 (peptide code TMTC4-001) peptide on HLA-A*02:01 (human)
T10 peptide: NVLEIVQKV

T11: TBC1D9 (peptide code TBC1D9-002) peptide on HLA-A*02:01 (human)
T11 peptide: LLLPDVIKV


Assays:
[1] = biological target: T1, MAGEA1 (peptide MAGEA1-003) peptide on …; experiment: multimer staining
[2] = biological target: T2, GALNTL4 (peptide code GALNTL4-001) …; experiment: cytokine release
[3] = biological target: T3, TMEM175 (peptide code TMEM175-001) …; experiment: cytokine release
[4] = biological target: T4, PSME2 (peptide code PSME2-001) peptide …; experiment: cytokine release
[5] = biological target: T5, RASAL2 (peptide code RASAL2-002) …; experiment: cytokine release
[6] = biological target: T6, NSD1 (peptide code NSD1-001) peptide on …; experiment: cytokine release
[7] = biological target: T7, EPAS (peptide code EPAS-001) peptide on …; experiment: cytokine release
[8] = biological target: T8, PTRF (peptide code PTRF-001) peptide on …; experiment: cytokine release
[9] = biological target: T9, KIAA103 (peptide code KIAA103-002) …; experiment: cytokine release
[10] = biological target: T10, TMTC4 (peptide code TMTC4-001) peptide …; experiment: cytokine release
[11] = biological target: T11, TBC1D9 (peptide code TBC1D9-002) …; experiment: cytokine release

Binder | binding result [1] | binding result [2] | binding result [3] | binding result [4] | binding result [5] | binding result [6] | binding result [7] | binding result [8] | binding result [9] | binding result [10] | binding result [11]
R26P3H1 (TCR, V domains shown) Valpha: AQSVAQPEDQVNVAEGNPLTVKCTYSVSGNPYLFWYVQYPNRGLQFLLKYITGDNLVKGSYGFEAEFNKSQTSFHLKKPSALVSDSALYFCAVRDMNRDDKIIFGKGTRLHILP Vbeta: DGGITQSPKYLFRKEGQNVTLSCEQNLNHDAMYWYRQDPGQGLRLIYYSQIVNDFQKGDIAEGYSVSREKKESFPLTVTSAQKNPTAFYLCASSRAEGGEQYFGPGTRLTVT | recognises | no recognition | no recognition | no recognition | no recognition | no recognition | no recognition | no recognition | no recognition | no recognition | no recognition
R26P2A6 (TCR, V domains shown) Valpha: QKEVEQDPGPLSVPEGAIVSLNCTYSNSAFQYFMWYRQYSRKGPELLMYTYSSGNKEDGRFTAQVDKSSKYISLFIRDSQPSDSATYLCAMSDVSGGYNKLIFGAGTRLAVHP Vbeta: EAQVTQNPRYLITVTGKKLTVTCSQNMNHEYMSWYRQDPGLGLRQIYYSMNVEVTDKGDVPEGYKVSRKEKRNFPLILESPSPNQTSLYFCASTTPDGTDEQFFGPGTRLTVL | recognises | no recognition | no recognition | no recognition | no recognition | no recognition | no recognition | no recognition | no recognition | no recognition | no recognition
R59P2E7 (TCR, V domains shown) Valpha: KQEVTQIPAALSVPEGENLVLNCSFTDSAIYNLQWFRQDPGKGLTSLLLIQSSQREQTSGRLNASLDKSSGRSTLYIAASQPGDSATYLCAVNSDYKLSFGAGTTVTVRA Vbeta: AAGVIQSPRHLIKEKRETATLKCYPIPRHDTVYWYQQGPGQDPQFLISFYEKMQSDKGSIPDRFSAQQFSDYHSELNMSSLELGDSALYFCASSLGLGTGDYGYTFGSGTRLTVV | recognises | no recognition | no recognition | no recognition | no recognition | no recognition | no recognition | no recognition | no recognition | no recognition | no recognition
R26P1A9 (TCR, V domains shown) Valpha: SQQGEEDPQALSIQEGENATMNCSYKTSINNLQWYRQNSGRGLVHLILIRSNEREKHSGRLRVTLDTSKKSSSLLITASRAADTASYFCLIGASGSRLTFGEGTQLTVNP Vbeta: DAGVIQSPRHEVTEMGQEVTLRCKPISGHDYLFWYRQTMMRGLELLIYFNNNVPIDDSGMPEDRFSAKMPNASFSTLKIQPSEPRDSAVYFCASSYFGWNEKLFFGSGTQLSVL | recognises | no recognition | no recognition | no recognition | no recognition | no recognition | no recognition | no recognition | no recognition | no recognition | no recognition
R37P1H1 (TCR, V domains shown) Valpha: AQTVTQSQPEMSVQEAETVTLSCTYDTSESNYYLFWYKQPPSRQMILVIRQEAYKQQNATENRFSVNFQKAAKSFSLKISDSQLGDTAMYFCAFGYSGGGADGLTFGKGTHLIIQP Vbeta: DAGVTQSPTHLIKTRGQQVTLRCSPKSGHDTVSWYQQALGQGPQFIFQYYEEEERQRGNFPDRFSGHQFPNYSSELNVNALLLGDSALYLCASSNEGQGWEAEAFFGQGTRLTVV | recognises | no recognition | no recognition | no recognition | no recognition | no recognition | no recognition | no recognition | no recognition | no recognition | no recognition
R42P3A9 (TCR, V domains shown) Valpha: GIQVEQSPPDLILQEGANSTLRCNFSDSVNNLQWFHQNPWGQLINLFYIPSGTKQNGRLSATTVATERYSLLYISSSQTTDSGVYFCAVHNFNKFYFGSGTKLNVKP Vbeta: AAGVIQSPRHLIKEKRETATLKCYPIPRHDTVYWYQQGPGQDPQFLISFYEKMQSDKGSIPDRFSAQQFSDYHSELNMSSLELGDSALYFCASSLLGQGYNEQFFGPGTRLTVL | recognises | no recognition | no recognition | no recognition | no recognition | no recognition | no recognition | no recognition | no recognition | no recognition | no recognition

Reference: patent US20190321478A1 (published 2019)
